Biological target: PYL1-MS2 (MS2 binding protein fused to PYL1 via a glycine-serine linker) (UniProt Q8VZS8)
Experiment: cell-based or functional assay

Work on “dPspCas13b-ABI1 (catalytically inactive Prevotella sp. Cas13b fused to the abscisic acid-binding protein ABI1 via a glycine-serine linker) (from UniProt P49597 126-423)” yielded a GFP+ cells by flow cytometry (split GFP trans-splicing reporter) in the presence of 1.5 mM ABA (% of cells GFP+) of over 40.

Reference: patent US20240035031A1
